The experiment addresses human plasminogen (human, UniProt P00747 20-810). In words: SPR.

human plasminogen, sequence (P00747 20-810): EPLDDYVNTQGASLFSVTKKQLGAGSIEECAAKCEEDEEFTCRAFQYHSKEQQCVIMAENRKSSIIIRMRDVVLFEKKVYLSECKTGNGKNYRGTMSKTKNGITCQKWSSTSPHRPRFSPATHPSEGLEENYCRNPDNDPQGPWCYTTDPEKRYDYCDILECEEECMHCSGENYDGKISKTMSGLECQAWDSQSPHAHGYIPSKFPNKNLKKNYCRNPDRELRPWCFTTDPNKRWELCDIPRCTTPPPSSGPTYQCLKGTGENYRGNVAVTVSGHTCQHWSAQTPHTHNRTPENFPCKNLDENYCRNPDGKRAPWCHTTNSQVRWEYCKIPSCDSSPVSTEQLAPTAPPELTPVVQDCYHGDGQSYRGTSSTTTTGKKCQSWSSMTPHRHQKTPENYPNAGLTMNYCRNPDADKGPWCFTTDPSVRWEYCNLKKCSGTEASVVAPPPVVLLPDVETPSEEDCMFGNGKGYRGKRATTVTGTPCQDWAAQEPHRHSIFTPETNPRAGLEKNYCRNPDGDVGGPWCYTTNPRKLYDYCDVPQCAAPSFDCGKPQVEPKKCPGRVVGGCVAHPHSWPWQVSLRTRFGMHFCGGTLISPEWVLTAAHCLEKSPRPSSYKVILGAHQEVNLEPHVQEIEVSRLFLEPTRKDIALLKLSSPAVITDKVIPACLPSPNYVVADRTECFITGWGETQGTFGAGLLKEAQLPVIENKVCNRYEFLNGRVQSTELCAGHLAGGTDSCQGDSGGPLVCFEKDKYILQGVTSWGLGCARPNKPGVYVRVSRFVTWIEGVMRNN

B1: recombinant FabG (3-ketoacyl-ACP reductase) of Streptococcus suis serotype 2 strain ZY05719 (natural protein, UniProt A0A0H3MXL9 1-244, looked up)
chain: MELTNKNVFVTGSSRGIGLAIAHKFASLGANVVLNGRGQLGQDLLDSFADYGVKVLAISGDISSAQDAKRMVAEAIETLGSVDILVNNAGITKDGMALRMTEEDFDTVLKVNLTGTFNMTQAVLKPMTKAREGAIINLSSVSGLIGNAGQANYSASKAGVIGFTKAIAREVAGRNVRVNAIAPGFIQSDMTDVLSDKIKEAMTAQIPMKRFGATEEVADVAVFLAKQEYLTGQVIAVDGGLTMQ
B1 registered a Kd of 1.72 nM.

Broadly, the Kd is the equilibrium constant for the complex coming apart.

(Values after PMC12232145 (BMC Microbiology, 2025).)
